{"source": "patent US20180171024A1", "key": {"[1]": {"biological_target": "HLA-A2 on other WT1 negative HLA-A2+ cells (other than 501, A498 and SKMEL; members not named)", "assay": "flow cytometry on U266 cells (WT1 mRNA -)"}, "[2]": {"biological_target": "HLA-A2/154 on T2 cells (human)", "assay": "flow cytometry, T2 cells loaded with 154 peptide"}, "[3]": {"biological_target": "HLA-A2 on cells (tumor cell lines, normal primary cells, PBMCs) (human)", "assay": "flow cytometry, WM-266-4 melanoma cells"}, "[4]": {"biological_target": "HLA-A2/WT1 126-134 complex on T2 cells (human)", "assay": "flow cytometry, T2 cells loaded with WT1 [..], 10 µg/ml"}, "[5]": {"biological_target": "HLA-A2 on cells (tumor cell lines, normal primary cells, PBMCs) (human)", "assay": "flow cytometry, astrocytes #1800, 10 µg/ml"}, "[6]": {"biological_target": "HLA-A2/TyrD-S15 on T2 cells (human)", "assay": "flow cytometry, T2 cells loaded with TyrD S15 [..], 10 µg/ml"}, "[7]": {"biological_target": "HLA-A2/TyrD-S23 on T2 cells (human)", "assay": "flow cytometry, T2 cells loaded with TyrD-S23 [..], 10 µg/ml"}, "[8]": {"biological_target": "HLA-A2 on cells (tumor cell lines, normal primary cells, PBMCs) (human)", "assay": "flow cytometry, endothelial cells HUE-1, 10 µg/ml"}, "[9]": {"biological_target": "HLA-A2/TyrD-S17 on T2 cells (human)", "assay": "flow cytometry, T2 cells loaded with TyrD-S17 [..], 10 µg/ml"}, "[10]": {"biological_target": "HLA-A2/WT1 126-134 complex on T2 cells (human)", "assay": "flow cytometry, peptide-loaded T2 cells (10^-4-10^-5 M), PE anti-mouse"}, "[11]": {"biological_target": "HLA-A2/WT1-S10 on T2 cells (human)", "assay": "flow cytometry, peptide-loaded T2 cells (10^-4-10^-5 M), PE anti-mouse"}, "[12]": {"biological_target": "HLA-A2/WT1-S11 on T2 cells (human)", "assay": "flow cytometry, peptide-loaded T2 cells (10^-4-10^-5 M), PE anti-mouse"}, "[13]": {"biological_target": "HLA-A2/WT1-S3 on T2 cells (human)", "assay": "flow cytometry, peptide-loaded T2 cells (10^-4-10^-5 M), PE anti-mouse"}, "[14]": {"biological_target": "HLA-A2/WT1-S5 on T2 cells (human)", "assay": "flow cytometry, peptide-loaded T2 cells (10^-4-10^-5 M), PE anti-mouse"}, "[15]": {"biological_target": "HLA-A2/WT1-S6 on T2 cells (human)", "assay": "flow cytometry, peptide-loaded T2 cells (10^-4-10^-5 M), PE anti-mouse"}}, "data": [{"substance": "BB7.2 (antibody)", "values": [{"measurement": "MFI", "setting": "[1]", "result": 80.1}, {"measurement": "MFI", "setting": "[2]", "result": 1920}, {"measurement": "MFI", "setting": "[3]", "result": 64}, {"measurement": "MFI relative to background", "setting": "[4]", "result": 1420}, {"measurement": "MFI", "setting": "[5]", "result": 751}, {"measurement": "MFI relative to background", "setting": "[6]", "result": 642}, {"measurement": "MFI relative to background", "setting": "[7]", "result": 443}, {"measurement": "MFI", "setting": "[8]", "result": 133}, {"measurement": "MFI relative to background", "setting": "[9]", "result": 444}, {"measurement": "MFI", "setting": "[10]", "result": 2260}, {"measurement": "MFI", "setting": "[11]", "result": 1350}, {"measurement": "MFI", "setting": "[12]", "result": 1670}, {"measurement": "MFI", "setting": "[13]", "result": 1410}, {"measurement": "MFI", "setting": "[14]", "result": 1080}, {"measurement": "MFI", "setting": "[15]", "result": 1670}]}]}
